B1: rN-MDP1 (amino acids 1-100 of mycobacterial DNA-binding protein 1, histidine-tagged) (domain or fragment)
chain: MGMNKAELIDVLTQKLGSDRRQATAAVENVVDTIVRAVHKGDSVTITGFGVFEQRRRAARVARNPRTGETVKVKPTSVPAFRPGAQFKAVVSGAQRLPAE
notes: also called N-terminal half of MDP1

Columns and labels:
[1] = target: rFull-MDP1 (full-length HIS-tagged recombinant mycobacterial DNA-binding protein 1) (M. tuberculosis) (UniProt P9WMK7); experiment: cross-linking
[2] = target: the molecule itself; experiment: […], buffer pH 7.0 with 300 mM NaCl, […]

Molecule	stoichiometry N [1]	stoichiometry N [2]
rFull-MDP1 (full-length HIS-tagged recombinant mycobacterial DNA-binding protein 1) (from UniProt P9WMK7 1-216) (natural protein)	2	–
B1	–	2
